B1: MV-15 anti-c-Met/anti-VEGF bispecific antibody (bispecific antibody, human IgG2, kappa)
heavy: EVQLVESGGGLVQPGGSLRLSCAASGFTFTDYYMSWVRQAPGKGLEWLGFIRNKANGYTTEYSASVKGRFTISRDNSKNTLYLQMNSLRAEDTAVYYCARDNWFAYWGQGTLVTVSSASTKGPSVFPLAPCSRSTSESTAALGCLVKDYFPEPVTVSWNSGALTSGVHTFPAVLQSSGLYSLSSVVTVPSSNFGTQTYTCNVDHKPSNTKVDKTVERKCCVECPPCPAPPVAGPSVFLFPPKPKDTLMISRTPEVTCVVVDVSHEDPEVQFNWYVDGVEVHNAKTKPREEQFNSTFRVVSVLTVVHQDWLNGKEYKCKVSNKGLPAPIEKTISKTKGQPREPQVYTLPPSREEMTKNQVSLTCLVKGFYPSDIAVEWESNGQPENNYKTTPPMLDSDGSFFLYSKLTVDKSRWQQGNVFSCSVMHEALHNHYTQKSLSLSPGKGGGGSGGGGSEVQLLESGGGLVQPGGSLRLSCAASGFTFSGYAMSWVRQAPGKGLEWVSSIYSSSGSKYYADSVKGRFTISRDNSKNTLYLQMNSLRAEDTAVYYCARASSTCTRTWCSYDDAMDVWGQGTLVTVSSGGGGSGGGGSGGGGSQSVLTQPPSASGTPGQRVTISCTGSSSNIGNNAVTWYQQLPGTAPKLLIYDDSHRPSGVPDRFSGSKSGTSASLAISGLRSEDEADYYCGTWDYSLSGYVFGGGTKLTVLG
light: DIQMTQSPSSLSASVGDRVTITCKSSQSLLASGNQNNYLAWYQQKPGKAPKMLIIWASTRVSGVPSRFSGSGSGTDFTLTISSLQPEDFATYYCQQSYSRPYTFGQGTKVEIKRTVAAPSVFIFPPSDEQLKSGTASVVCLLNNFYPREAKVQWKVDNALQSGNSQESVTEQDSKDSTYSLSSTLTLSKADYEKHKVYACEVTHQGLSSPVTKSFNRGEC
notes: This is an inference
B2: MV-18 anti-c-Met/anti-VEGF bispecific antibody (bispecific antibody, human IgG2, kappa)
heavy: EVQLVESGGGLVQPGGSLRLSCAASGFTFTDYYMSWVRQAPGKGLEWLGFIRNKANGYTTEYSASVKGRFTISRDNSKNTLYLQMNSLRAEDTAVYYCARDNWFAYWGQGTLVTVSSASTKGPSVFPLAPCSRSTSESTAALGCLVKDYFPEPVTVSWNSGALTSGVHTFPAVLQSSGLYSLSSVVTVPSSNFGTQTYTCNVDHKPSNTKVDKTVERKCCVECPPCPAPPVAGPSVFLFPPKPKDTLMISRTPEVTCVVVDVSHEDPEVQFNWYVDGVEVHNAKTKPREEQFNSTFRVVSVLTVVHQDWLNGKEYKCKVSNKGLPAPIEKTISKTKGQPREPQVYTLPPSREEMTKNQVSLTCLVKGFYPSDIAVEWESNGQPENNYKTTPPMLDSDGSFFLYSKLTVDKSRWQQGNVFSCSVMHEALHNHYTQKSLSLSPGKGGGGSGGGGSEVQLLESGGGLVQPGGSLRLSCAASGFTFSDYYMSWVRQAPGKGLEWVSAIYSGGGSIYYADSVKGRFTISRDNSKNTLYLQMNSLRAEDTAVYYCARDVQWNKAPRFDYWGQGTLVTVSSGGGGSGGGGSGGGGSQSVLTQPPSASGAPGQRVTISCSGSSSNIGSNDVSWYQQLPGTAPKLLIYADSNRPSGVPDRFSGSKSGTSASLAISGLRSEDEADYYCGSWDYSLSGYVFGGGTKLTVLG
light: B1 light
B3: MV-17 anti-c-Met/anti-VEGF bispecific antibody (bispecific antibody, human IgG2, kappa)
heavy: EVQLVESGGGLVQPGGSLRLSCAASGFTFTDYYMSWVRQAPGKGLEWLGFIRNKANGYTTEYSASVKGRFTISRDNSKNTLYLQMNSLRAEDTAVYYCARDNWFAYWGQGTLVTVSSASTKGPSVFPLAPCSRSTSESTAALGCLVKDYFPEPVTVSWNSGALTSGVHTFPAVLQSSGLYSLSSVVTVPSSNFGTQTYTCNVDHKPSNTKVDKTVERKCCVECPPCPAPPVAGPSVFLFPPKPKDTLMISRTPEVTCVVVDVSHEDPEVQFNWYVDGVEVHNAKTKPREEQFNSTFRVVSVLTVVHQDWLNGKEYKCKVSNKGLPAPIEKTISKTKGQPREPQVYTLPPSREEMTKNQVSLTCLVKGFYPSDIAVEWESNGQPENNYKTTPPMLDSDGSFFLYSKLTVDKSRWQQGNVFSCSVMHEALHNHYTQKSLSLSPGKGGGGSGGGGSEVQLLESGGGLVQPGGSLRLSCAASGFTFSNYDMSWVRQAPGKGLEWVSGIYPNGGSKYYADSVKGRFTISRDNSKNTLYLQMNSLRAEDTAVYYCARALRQCQRYWCSYADGMDVWGQGTLVTVSSGGGGSGGGGSGGGGSQSVLTQPPSASGTPGQRVTISCTGSSSNIGSNYVSWYQQLPGTAPKLLIYADSQRPSGVPDRFSGSKSGTSASLAISGLRSEDEADYYCGTWDYSLSGYVLGGGTKLTVLG
light: B1 light
B4: MV-19 anti-c-Met/anti-VEGF bispecific antibody (bispecific antibody, human IgG2, kappa)
heavy: EVQLVESGGGLVQPGGSLRLSCAASGFTFTDYYMSWVRQAPGKGLEWLGFIRNKANGYTTEYSASVKGRFTISRDNSKNTLYLQMNSLRAEDTAVYYCARDNWFAYWGQGTLVTVSSASTKGPSVFPLAPCSRSTSESTAALGCLVKDYFPEPVTVSWNSGALTSGVHTFPAVLQSSGLYSLSSVVTVPSSNFGTQTYTCNVDHKPSNTKVDKTVERKCCVECPPCPAPPVAGPSVFLFPPKPKDTLMISRTPEVTCVVVDVSHEDPEVQFNWYVDGVEVHNAKTKPREEQFNSTFRVVSVLTVVHQDWLNGKEYKCKVSNKGLPAPIEKTISKTKGQPREPQVYTLPPSREEMTKNQVSLTCLVKGFYPSDIAVEWESNGQPENNYKTTPPMLDSDGSFFLYSKLTVDKSRWQQGNVFSCSVMHEALHNHYTQKSLSLSPGKGGGGSGGGGSEVQLLESGGGLVQPGGSLRLSCAASGFTFSSYSMSWVRQAPGKGLEWVSGISHGGGNKYYADSVKGRFTISRDNSKNTLYLQMNSLRAEDTAVYYCARDLRANNDTGFDYWGQGTLVTVSSGGGGSGGGGSGGGGTQSVLTQPPSSSGTPGQRVTISCTGSSSNIGSNAVTWYQQLPGTAPKLLIYDDNHRPSGVPDRFSGSKSGTSASLAISGLRSEDEADYYCGAWDYSLNAYVFGGGTKLTVLG
light: B1 light
B5: MV-16 anti-c-Met/anti-VEGF bispecific antibody (bispecific antibody, human IgG2, kappa)
heavy: EVQLVESGGGLVQPGGSLRLSCAASGFTFTDYYMSWVRQAPGKGLEWLGFIRNKANGYTTEYSASVKGRFTISRDNSKNTLYLQMNSLRAEDTAVYYCARDNWFAYWGQGTLVTVSSASTKGPSVFPLAPCSRSTSESTAALGCLVKDYFPEPVTVSWNSGALTSGVHTFPAVLQSSGLYSLSSVVTVPSSNFGTQTYTCNVDHKPSNTKVDKTVERKCCVECPPCPAPPVAGPSVFLFPPKPKDTLMISRTPEVTCVVVDVSHEDPEVQFNWYVDGVEVHNAKTKPREEQFNSTFRVVSVLTVVHQDWLNGKEYKCKVSNKGLPAPIEKTISKTKGQPREPQVYTLPPSREEMTKNQVSLTCLVKGFYPSDIAVEWESNGQPENNYKTTPPMLDSDGSFFLYSKLTVDKSRWQQGNVFSCSVMHEALHNHYTQKSLSLSPGKGGGGSGGGGSEVQLLESGGGLVQTGGSLRLSCAASGFTFSDYAMSWVRQAPGKGLEWVSSIYPGSGSKYYADSVKGRFAISRDNSKNTLYLQMNSLRAEDTAVYYCARDAWFRGHNVFDYWGQGTLVTVSSGGGGSGGGGSGGGGSQSVLTQPPSASGTPGQRVTISCTGSSSNIGSNNVTWYQQLPGTAPKLLIYSDSHRPSGVPDRFSGSKSGTSASLAISGLQSEDEADYYCGSWDYSLSAYVFGGGTKLTVLG
light: B1 light
B6: MV-20 anti-c-Met/anti-VEGF bispecific antibody (bispecific antibody, human IgG2, kappa)
heavy: EVQLVESGGGLVQPGGSLRLSCAASGFTFTDYYMSWVRQAPGKGLEWLGFIRNKANGYTTEYSASVKGRFTISRDNSKNTLYLQMNSLRAEDTAVYYCARDNWFAYWGQGTLVTVSSASTKGPSVFPLAPCSRSTSESTAALGCLVKDYFPEPVTVSWNSGALTSGVHTFPAVLQSSGLYSLSSVVTVPSSNFGTQTYTCNVDHKPSNTKVDKTVERKCCVECPPCPAPPVAGPSVFLFPPKPKDTLMISRTPEVTCVVVDVSHEDPEVQFNWYVDGVEVHNAKTKPREEQFNSTFRVVSVLTVVHQDWLNGKEYKCKVSNKGLPAPIEKTISKTKGQPREPQVYTLPPSREEMTKNQVSLTCLVKGFYPSDIAVEWESNGQPENNYKTTPPMLDSDGSFFLYSKLTVDKSRWQQGNVFSCSVMHEALHNHYTQKSLSLSPGKGGGGSGGGGSEVQLLESGGGLVQPGGSLRLSCAASGFTFSNYDMSWVRQAPGKGLEWVSLISHGGGNIYYADSVKGRFTISRDNSKNTLYLQMNSLRAEDTAVYYCARVPVMCTNHWCSYANGMDVWGQGTLVTVSSGGGGSGGGGSGGGGSQSVLTQPPSASGTPGQRVIISCSASSSNIGSNAVYWYQQLPGTAPKLLIYSDNQRPSGVPDRFSGSKSGTSASLAISGLRSEDEADYYCGSWDYSLSAYVFGGGTKLTVLG
light: B1 light

Chain of VEGF (R&D systems) (P15692 other isoform, or with tags, fused parts or gaps limits assumed): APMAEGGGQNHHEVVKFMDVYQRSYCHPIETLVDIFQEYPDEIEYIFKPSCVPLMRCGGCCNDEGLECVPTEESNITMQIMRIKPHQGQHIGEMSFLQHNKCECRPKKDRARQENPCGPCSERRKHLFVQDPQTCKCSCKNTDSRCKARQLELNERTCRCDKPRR

One test has as its target VEGF (R&D systems) (UniProt P15692-4 27-191, limits assumed). Briefly: SPR (Biacore T100), CM5 chip, VEGF; format unclear in the text. On the procedure:
An examination on whether the 8 anti-c-Met/anti-VEGF bispecific antibodies prepared in Example 2 maintains binding affinity to VEGF was conducted using Biacore T100(GE). VEGF (R&D systems) immobilized on the surface of CM5 chip (#BR-1005-30, GE) by amino coupling according to the manufacturer's instructions. About 90˜120 RU of the anti-c-Met/anti-VEGF bispecific antibody was captured, and […] was injected thereto at various concentrations. Then, a solution containing 1M NaCl and 5 mM NaOH was injected thereto to regenerate the surface. The obtained data were fitted using BlAevaluation software (GE Healthcare, Biacore T100 evaluation software), to measure the binding affinity to VEGF.
A general note: In SPR one partner is held on a chip, and binding of the other changes the refractive index at the surface.
One may read the Kd as the equilibrium constant for the complex coming apart. Lower therefore signals higher affinity. The molecule B1 displayed a Kd of 6.83 nM.
Same read-out and setting: the result for B2 reads 4.23 nM; that for B3, 5.76 nM; that for B4, 1 nM.
B5 displayed a Kd of 14.8 nM.
Same read-out and setting: next, B6: 4.43 nM.

The target in a further test is T1, human c-Met/Fc fusion protein (R&D Systems) (human, UniProt P08581 25-932).
T1 construct: Bought reagent; also called c-Met-Fc (#358-MT/CF, R&D Systems); human c-Met/Fc protein; not shown: Fc part of the bought fusion protein
T1 sequence (P08581 25-932 limits assumed): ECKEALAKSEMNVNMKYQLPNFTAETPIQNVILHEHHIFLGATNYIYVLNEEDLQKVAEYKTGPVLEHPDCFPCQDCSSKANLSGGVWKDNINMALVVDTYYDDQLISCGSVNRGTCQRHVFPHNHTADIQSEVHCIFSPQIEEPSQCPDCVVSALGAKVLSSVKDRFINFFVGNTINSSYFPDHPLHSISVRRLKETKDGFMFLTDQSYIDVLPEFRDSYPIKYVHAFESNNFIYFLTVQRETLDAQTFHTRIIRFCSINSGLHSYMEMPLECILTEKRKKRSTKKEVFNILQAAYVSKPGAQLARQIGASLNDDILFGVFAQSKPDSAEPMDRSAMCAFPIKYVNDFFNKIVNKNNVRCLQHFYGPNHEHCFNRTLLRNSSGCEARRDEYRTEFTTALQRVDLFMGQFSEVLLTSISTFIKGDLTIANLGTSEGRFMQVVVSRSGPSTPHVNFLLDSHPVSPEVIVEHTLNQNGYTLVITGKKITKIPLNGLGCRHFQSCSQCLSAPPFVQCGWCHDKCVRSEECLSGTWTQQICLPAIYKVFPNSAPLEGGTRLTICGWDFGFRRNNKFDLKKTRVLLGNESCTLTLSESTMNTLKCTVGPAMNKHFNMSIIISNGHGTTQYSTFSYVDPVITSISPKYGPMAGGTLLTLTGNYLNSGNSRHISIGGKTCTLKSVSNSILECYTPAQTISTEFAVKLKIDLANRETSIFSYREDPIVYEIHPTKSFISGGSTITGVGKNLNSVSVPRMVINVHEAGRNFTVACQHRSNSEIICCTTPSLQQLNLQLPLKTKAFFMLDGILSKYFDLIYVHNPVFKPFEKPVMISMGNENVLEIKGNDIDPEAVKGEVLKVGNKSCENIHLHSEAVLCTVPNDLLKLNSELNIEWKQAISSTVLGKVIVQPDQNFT
Briefly: SPR (Biacore T100), bispecific captured by human Fab binder on CM5 chip, c-Met-Fc injected. On the procedure:
An examination on whether the anti-c-Met/anti-VEGF bispecific antibody maintains binding affinity to c-Met was conducted using Biacore T100(GE). A human Fab binding agent (GE Healthcare) was immobilized onto a CM5 chip (#BR-1005-30, GE) according to the manufacturer's instructions. About 90˜120 RU of the anti-c-Met/anti-VEGF bispecific antibody was captured, and c-Met-Fc (#358-MT/CF, R&D Systems) was injected thereto at various concentrations. Then, 10 mM Glycine-HCl (pH 2.1) solution was injected thereto to regenerate the surface. The obtained data were fitted using BlAevaluation software (GE Healthcare, Biacore T100 evaluation software), to measure the binding affinity to c-Met.
B1 returned a Kd of 0.1 nM.
The molecule B2 registered a Kd of 0.05 nM.
Molecule B3 had a Kd of 0.09 nM.
B4 registered a Kd of 0.3 nM.
Consider B5, for which the Kd was 0.21 nM.
With B6, binding was put at a Kd of 0.04 nM.

Values taken from US20160090427A1 (SAMSUNG ELECTRONICS, published 2016).
